Measured values taken from US8951752B2, “N-demethyase genes and uses thereof” (priority 2011, dated 2015).

How the values were obtained:
Type in all cases: biochemical, Pseudomonas putida CBB5
[1] = molecular target: T1, cytochrome c reductase (Ccr) (Pseudomonas putida, UniProt H9N291); assay: NAD(P)H:cytochrome c oxidoreductase activity
T1 construct: 87 μM bovine cytochrome c (type Ill; Sigma), and 1-20 μg CBB5 protein (depending on purity); made in house; host or cells: column fractions of the natural strain Pseudomonas putida CBB5; not recombinant
Procedure: Enzyme Activity Assays. NADH:cytochrome c oxidoreductase (cytochrome c reductase, Ccr) activity was determined as described by Ueda et al. (1972). A typical 1-mL reaction contained 300 μM NADH, 87 μM bovine cytochrome c (type Ill; Sigma), and 1-20 μg CBB5 protein (depending on purity) in 50 mM KPi buffer. The activity was determined by monitoring the increase in absorbance at 550 nm due to reduction of […] cytochrome c at 30° C. An extinction coefficient of 21,000 M^−1 cm^−1 for reduced minus oxidized cytochrome c was used for quantitating the activity. One unit of activity was defined as one μmol of cytochrome c reduced per minute.

[2] = substrate: Cn1c(=O)[nH]c2ncn(C)c2c1=O; assay: Methylxanthine N-demethylase activity assay with purified Ndm plus partially purified Ccr; details: other: saturating Ccr, 50 μM Fe2+, 30° C., 50 mM KPi pH 7.5
Procedure: (§1) Methylxanthine N-demethylase activity assay contained, in 1-mL total volume, 0.5 mM methylxanthine, 1 mM NADH, 50 μM Fe(NH4)2(SO4)2, and an appropriate amount of Ndm (0.08-7.5 mg protein, depending on purity of the protein) in 50 mM KPi buffer. Approximately 4 U of partially purified Ccr was added to reaction mixture when assaying Ndm in Phenyl Sepharose and Q Sepharose eluant-fractions (Ccr was not added to the enzyme reaction mixture when assaying Ndm activity in DEAE Sepharose eluant-fractions because Ccr co-eluted with Ndm). The reaction mixture was incubated at 30° C. with 300 rpm shaking on an incubating microplate shaker (VWR). Periodically, a small aliquot was sampled from the reaction mixture and mixed with equal volume of acetonitrile for quantifying concentrations of methylxanthines and N-demethylated products by HPLC. One unit of N-demethylase activity was defined as the consumption of one μmole methylxanthine per minute. When Ndm was coupled with the reductase and ferredoxin components of naphthalene dioxygenase of Pseudomonas sp. strain 9816 (Haigler & Gibson, 1990a; Haigler & Gibson, 1990b), 30 and 100 μg of the respective proteins were used. Spinach ferredoxin reductase and ferredoxin were also substituted for Ccr as described by Subramanian et al. (1979).
(§2) Determination of Kinetic Parameters. Apparent kinetic parameters of Ndm were determined by measuring the initial rate of disappearance (vo) of paraxanthine or 7-methylxanthine in 50 mM KPi buffer (pH 7.5) at 30° C. The paraxanthine and 7-methylxanthine concentrations ([S]) used in these experiments were from 20 to 500 μM. Substrates were incubated with Ndm and Ccr under standard conditions for 15 minutes. At 1, 5, 10, and 15 minutes, samples were removed from the reaction mixtures to quantitate substrate concentrations by HPLC. Plots of substrate concentrations against time were used to determine the initial rates of disappearance of substrates which were linear over 15 minutes. The apparent kinetic parameters were determined from Michaelis-Menten plots of Vo against [S] fitted with the equation
(§3) Determination of Oxygen Requirement. Oxygen consumption by Ndm during N-demethylation of paraxanthine was determined in a closed reaction vessel equipped with a Clarke-type oxygen electrode (Digitial Modell 0, Rank Brothers Ltd., Cambridge, England). […] After 13 minutes, a 100-μL aliquot was withdrawn from the reaction, immediately mixed with equal volume of acetonitrile to stop the enzyme reaction, and analyzed for N-demethylation product by HPLC. Background oxygen consumption, possibly due to NADH oxidase enzyme activity in the partially purified Ccr, was quantitated in control reactions containing all reaction components except paraxanthine. […]

[3] = substrate: Cn1cnc2[nH]c(=O)[nH]c(=O)c21; assay: as above; details: other: saturating Ccr, 50 μM Fe2+, 30° C., 50 mM KPi pH 7.5
Procedure: as §1, §2, §3

[4] = substrate: Cn1c(=O)[nH]c(=O)c2[nH]cnc21; assay: Methylxanthine N-demethylase assay and kinetics, NdmB-His6 with His6-NdmD; details: other: NdmB-His6, 30° C., pH 7.5, ∞ where no activity
Procedure: (§4) Methylxanthine N-demethylase activity assay contained, in 1-ml total volume, 0.5 mM methylxanthine, 1 mM NADH, 50 μM Fe(NH4)2(SO4)2, and an appropriate amount of NdmA-His6 or NdmB-His6 (7.4 μg-2.5 mg protein depending on substrate specificity) in 50 mM KPi buffer (pH 7.5). Approximately 4 U of partially purified reductase, prepared as described previously (Summers et al., 2011) or 59 U of purified His6-NdmD was added to reaction mixture. Catalase from bovine liver (4,000 U) was also added to reactions containing His6-NdmD. The reaction mixture was incubated at 30° C. with 300 rpm shaking on an incubating microplate shaker (VWR, Radnor, Pa.). Periodically, a small aliquot was sampled from the reaction mixture and mixed with equal volume of acetonitrile for quantifying concentrations of methylxanthines and N-demethylated products by HPLC. One unit of N-demethylase activity was defined as the consumption of one […] methylxanthine per minute.
(§5) Apparent kinetic parameters of NdmA-His6 and NdmB-His6 were determined by measuring the initial rate of disappearance (vo) of methylxanthines in 50 mM KPi buffer (pH 7.5) at 30° C. The initial substrate concentrations (ESI) used in these experiments were from 25 to 500 μM. Substrates were incubated with His6-NdmD plus either NdmA-His6 or NdmB-His6 under standard conditions for 15 minutes. At 1, 5, 10, and 15 minutes, samples were removed from the reaction mixtures to quantitate substrate concentrations by HPLC. Plots of substrate concentrations against time were used to determine the initial rates of disappearance of substrates which were linear over 15 minutes. The apparent kinetic parameters were determined from Michaelis-Menten plots of vo against [S] fitted with the equation

[5] = substrate: Cn1c(=O)c2[nH]cnc2n(C)c1=O; assay: as above; details: other: NdmB-His6, 30° C., pH 7.5, ∞ where no activity
Procedure: as §4, §5

[6] = substrate: Cn1c(=O)c2c(ncn2C)n(C)c1=O; assay: as above; details: other: NdmB-His6, 30° C., pH 7.5, ∞ where no activity
Procedure: as §4, §5

[7] = substrate: Cn1cnc2c1c(=O)[nH]c(=O)n2C; assay: as above; details: other: NdmB-His6, 30° C., pH 7.5, ∞ where no activity
Procedure: as §4, §5

[8] = substrate: Cn1c(=O)[nH]c2nc[nH]c2c1=O; assay: Methylxanthine N-demethylase assay and kinetics, NdmA-His6 with His6-NdmD; details: other: NdmA-His6, 30° C., pH 7.5, ∞ where no activity
Procedure: as §4, §5

[9] = substrate: Cn1c(=O)[nH]c2ncn(C)c2c1=O; assay: as above; details: other: NdmA-His6, 30° C., pH 7.5, ∞ where no activity
Procedure: as §4, §5

[10] = substrate: Cn1c(=O)c2[nH]cnc2n(C)c1=O; assay: as above; details: other: NdmA-His6, 30° C., pH 7.5, ∞ where no activity
Procedure: as §4, §5

[11] = substrate: Cn1c(=O)c2c(ncn2C)n(C)c1=O; assay: as above; details: other: NdmA-His6, 30° C., pH 7.5, ∞ where no activity
Procedure: as §4, §5

T1 sequence (H9N291 whole entry): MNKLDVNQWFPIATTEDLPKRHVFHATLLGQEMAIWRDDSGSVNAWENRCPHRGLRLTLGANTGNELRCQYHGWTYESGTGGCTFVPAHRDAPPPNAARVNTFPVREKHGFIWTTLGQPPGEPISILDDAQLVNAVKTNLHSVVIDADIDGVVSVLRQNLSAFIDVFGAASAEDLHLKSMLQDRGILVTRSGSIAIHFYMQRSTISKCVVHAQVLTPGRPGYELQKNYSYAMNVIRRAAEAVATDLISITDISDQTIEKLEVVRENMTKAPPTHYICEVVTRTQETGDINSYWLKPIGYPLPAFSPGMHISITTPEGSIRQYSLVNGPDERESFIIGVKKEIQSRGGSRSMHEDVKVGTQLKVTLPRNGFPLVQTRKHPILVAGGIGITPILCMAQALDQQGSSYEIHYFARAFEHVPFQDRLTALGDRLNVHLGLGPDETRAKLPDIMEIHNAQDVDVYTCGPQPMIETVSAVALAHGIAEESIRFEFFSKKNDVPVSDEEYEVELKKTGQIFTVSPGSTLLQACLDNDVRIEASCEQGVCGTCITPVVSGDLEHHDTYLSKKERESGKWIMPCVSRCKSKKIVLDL

NC(=O)C1=CN([C@@H]2O[C@H](COP(=O)(O)OP(=O)(O)OC[C@H]3O[C@@H](n4cnc5c(N)ncnc54)[C@H](OP(=O)(O)O)[C@@H]3O)[C@@H](O)[C@H]2O)C=CC1 [NADPH]
Ccr activity relative to that with NADH [1]: 22%

B1: N-demethylase (Ndm: NdmA and NdmB subunits) (Pseudomonas putida) (protein)
chain 1: MEQAIINDEREYLRHFWHPVCTVTELEKAHPSSLGPLAVKLLNEQLVVAKLGDEYVAMRDRCAHRSAKLSLGTVSGNRLQCPYHGWQYDTHGACQLVPACPNSPIPNKAKVDRFDCEERYGLIWIRLDSSFDCTEIPYFSAANDPRLRIVIQEPYWWDATAERRWENFTDFSHFAFIHPGTLFDPNNAEPPIVPMDRFNGQFRFVYDTPEDMAVPNQAPIGSFSYTCSMPFAINLEVSKYSSSSLHVLFNVSCPVDSHTTKNFLIFAREQSDDSDYLHIAFNDLVFAEDKPVIESQWPKDAPADEVSVVADKVSIQYRKWLRELKEAHKEGSQAFRSALLDPVIESDRSYI
chain 2: MKEQLKPLLEDKTYLRHFWHPVCTLNEFERANASGHGPMGVTLLGEKLVLARLNSKIIAAADRCAHRSAQLSIGRVCSNAGKDYLECPYHGWRYDEAGACQLIPACPDKSISPRAKISSFDCEVKYDIVWVRLDNSFDCTQIPYLSDFDNPDMQVIVADSYIWETVAERRWENFTDFSHFAFVHPGTLYDPFFASHPTVYVNRVDGELQFKLAPPREMKGIPPEAPMGDFTYRCTMPYSVNLEIKLWKDDSRFVLWTTASPVDNKSCRNFMIIVREKDNQPDHMHLAFQKRVLDEDQPVIESQWPLEIQTSEVSVATDKISVQFRKWHKELSLSAVEGREAFRDSVLTNVIEEEQ
notes: lane 3, natural Ndm purified from P. putida CBB5; made in house; host or cells: purified from the natural strain Pseudomonas putida CBB5 (DEAE, Phenyl and Q Sepharose); not recombinant
Km [2]: 50.4 ± 6.8 µM | kcat [2]: 0.27 ± 0.01 s⁻¹ | Km [3]: 63.8 ± 7.5 µM | kcat [3]: 1.58 ± 0.05 s⁻¹

B2: NdmB-His6 (Pseudomonas putida) (protein)
chain: MKEQLKPLLEDKTYLRHFWHPVCTLNEFERANASGHGPMGVTLLGEKLVLARLNSKIIAAADRCAHRSAQLSIGRVCSNAGKDYLECPYHGWRYDEAGACQLIPACPDKSISPRAKISSFDCEVKYDIVWVRLDNSFDCTQIPYLSDFDNPDMQVIVADSYIWETVAERRWENFTDFSHFAFVHPGTLYDPFFASHPTVYVNRVDGELQFKLAPPREMKGIPPEAPMGDFTYRCTMPYSVNLEIKLWKDDSRFVLWTTASPVDNKSCRNFMIIVREKDNQPDHMHLAFQKRVLDEDQPVIESQWPLEIQTSEVSVATDKISVQFRKWHKELSLSAVEGREAFRDSVLTNVIEEEQ
notes: made in house; host or cells: E. coli BL21(DE3)
Km [4]: 22.4 ± 5.2 µM | kcat [4]: 0.528 ± 0.025 s⁻¹ | kcat/Km [4]: 23300 M⁻¹ s⁻¹ | Km [5]: 169.0 µM | Km [6]: 41.7 µM | kcat [6]: 0.00383 s⁻¹ | kcat/Km [6]: 100 M⁻¹ s⁻¹ | Km [7]: 25.3 ± 5.1 µM | kcat [7]: 0.772 ± 0.0317 s⁻¹ | kcat/Km [7]: 30000 M⁻¹ s⁻¹

B3: NdmA-His6 (Pseudomonas putida) (protein)
chain: MEQAIINDEREYLRHFWHPVCTVTELEKAHPSSLGPLAVKLLNEQLVVAKLGDEYVAMRDRCAHRSAKLSLGTVSGNRLQCPYHGWQYDTHGACQLVPACPNSPIPNKAKVDRFDCEERYGLIWIRLDSSFDCTEIPYFSAANDPRLRIVIQEPYWWDATAERRWENFTDFSHFAFIHPGTLFDPNNAEPPIVPMDRFNGQFRFVYDTPEDMAVPNQAPIGSFSYTCSMPFAINLEVSKYSSSSLHVLFNVSCPVDSHTTKNFLIFAREQSDDSDYLHIAFNDLVFAEDKPVIESQWPKDAPADEVSVVADKVSIQYRKWLRELKEAHKEGSQAFRSALLDPVIESDRSYI
notes: as for B2
Km [8]: 266.6 µM | kcat [8]: 0.26 s⁻¹ | kcat/Km [8]: 1000 M⁻¹ s⁻¹ | Km [9]: 52.9 µM | kcat [9]: 2.21 s⁻¹ | kcat/Km [9]: 41700 M⁻¹ s⁻¹ | Km [10]: 9.1 µM | kcat [10]: 1.38 s⁻¹ | kcat/Km [10]: 152000 M⁻¹ s⁻¹ | Km [11]: 37.6 µM | kcat [11]: 3.21 s⁻¹ | kcat/Km [11]: 85000 M⁻¹ s⁻¹
